Experiments:
[1] = target: the molecule itself; test: pulsed dipolar ESR
[2] = target: the molecule itself; test: SAXS
[3] = target: the molecule itself; test: crystal structure

B1: Aer2 1–402 S183C, MTSSL spin-labeled (domain or fragment)
chain: MGLFNAHAVAQQRADRIATLLQSFADGQLDTAVGEAPAPGYERLYDSLRALQRQLREQRAELQQVESLEAGLAEMSRQHEAGWIDQTIPAERLEGRAARIAKGVNELVAAHIAVKMKVVSVVTAYGQGNFEPLMDRLPGKKAQITEAIDGVRERLRGAAEATSAQLATAAYNARIKSALDNVCANVMIADNDLNIIYMNRTVSEMLGRAEADIRKQLPNFDAGRLMGANIDVFHKNPAHQRHLLANLTGVHKAELNLGGRRFSLDVVPVFNDANERLGSAVQWTDRTEEHRAEQEVSQLVQAAAAGDFSKRVEEAGKEGFFLRLAKDLNSLVDTADRGLRDVSRMLGALAQGDLTQRIEADYQGTFGQLKDFSNDTAQSLSRMLGQIREAADTINTAASEIA
modifications: MTSSL nitroxide spin label on C183
binding result [1]: binds

B2: Aer2 1–402 (domain or fragment)
chain: MGLFNAHAVAQQRADRIATLLQSFADGQLDTAVGEAPAPGYERLYDSLRALQRQLREQRAELQQVESLEAGLAEMSRQHEAGWIDQTIPAERLEGRAARIAKGVNELVAAHIAVKMKVVSVVTAYGQGNFEPLMDRLPGKKAQITEAIDGVRERLRGAAEATSAQLATAAYNARIKSALDNVSANVMIADNDLNIIYMNRTVSEMLGRAEADIRKQLPNFDAGRLMGANIDVFHKNPAHQRHLLANLTGVHKAELNLGGRRFSLDVVPVFNDANERLGSAVQWTDRTEEHRAEQEVSQLVQAAAAGDFSKRVEEAGKEGFFLRLAKDLNSLVDTADRGLRDVSRMLGALAQGDLTQRIEADYQGTFGQLKDFSNDTAQSLSRMLGQIREAADTINTAASEIA
binding result [2]: binds

B3: Aer2 173–289 K176A E275A (domain or fragment)
chain: ARIASALDNVSANVMIADNDLNIIYMNRTVSEMLGRAEADIRKQLPNFDAGRLMGANIDVFHKNPAHQRHLLANLTGVHKAELNLGGRRFSLDVVPVFNDANARLGSAVQWTDRTEE
binding result [3]: binds

B4: Aer2 1–317 (domain or fragment)
chain: MGLFNAHAVAQQRADRIATLLQSFADGQLDTAVGEAPAPGYERLYDSLRALQRQLREQRAELQQVESLEAGLAEMSRQHEAGWIDQTIPAERLEGRAARIAKGVNELVAAHIAVKMKVVSVVTAYGQGNFEPLMDRLPGKKAQITEAIDGVRERLRGAAEATSAQLATAAYNARIKSALDNVSANVMIADNDLNIIYMNRTVSEMLGRAEADIRKQLPNFDAGRLMGANIDVFHKNPAHQRHLLANLTGVHKAELNLGGRRFSLDVVPVFNDANERLGSAVQWTDRTEEHRAEQEVSQLVQAAAAGDFSKRVEEAGK
binding result [2]: binds

— paper PMC3577987 (Journal of molecular biology, 2012)
